Values quoted from earlier work, collected in publication PMC6959264.

Experiments:
Asp74 = Asp74 (UniProt position 74, WARYIDWVITT); conditions: original (unphotolyzed, dark) state implied
Asp212 = Asp212 (UniProt position 225, LFMVLDVSAKV)
Asp85 = Asp85 (UniProt position 98, WARYADWLFTT)
Asp96 = Asp96 (UniProt position 109, PLLLLDLALLV)

Substance | pKa (Asp74) | pKa (Asp212) | pKa (Asp85) | pKa (Asp96)
Rubrobacter xylanophilus rhodopsin (RxR) (Rubrobacter xylanophilus (DSM 9941)) | 1.3 |  |  | 
Bacteriorhodopsin (BR) (Halobacterium salinarum) |  | <2.5 | 2.6 | >12.0
